One assay has as its target T1, human Aβ (1-40) peptide (human).
T1 construct: also called Aβ1-40 fibers
Briefly: SPR, immobilized fibers.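 Further: biacore SPR using in vitro grown Aβ1-40 or Aβ1-42 fibrils immobilized on the chip with Fab analytes, KD from koff/kon fits or equilibrium isotherms based on total Fab concentration.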

The target of another assay is T2, Aβ (1-42) peptide (human).
T2 construct: also called Aβ1-42 fibers; Aβ4
Briefly: SPR, immobilized fibers.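 Further: biacore SPR using in vitro grown Aβ1-40 or Aβ1-42 fibrils immobilized on the chip with Fab analytes, KD from koff/kon fits or equilibrium isotherms based on total Fab concentration.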 In general terms: SPR reads the build-up and loss of mass on a sensor chip optically.

In assay [1] the target is T3, BSA-conjugated Aβ heptapeptide AEFRHDC (C-terminal Cys coupled to NSMP-activated BSA).
T3 construct: also called Peptide 2-7
T3 peptide: AEFRHDC
Kind of assay: ELISA. (In general: An ELISA detects its analyte on a solid surface through an enzyme-linked reagent.)

Assay [2] has as its target T4, BSA-conjugated Aβ heptapeptide LVFFAEC (reading uncertain; also: BSA conjugate).
T4 construct: also called Peptide 17-22
T4 peptide: LVFFAEC([NSMP-BSA])
Kind of assay: ELISA.

For assay [3], the target named is T5, BSA-conjugated Aβ heptapeptide VFFAEDC (C-terminal Cys coupled to NSMP-activated BSA).
T5 construct: also called Peptide 18-23
T5 peptide: VFFAEDC
Briefly: ELISA.

For assay [4], the target named is T6, BSA-conjugated Aβ heptapeptide FFAEDVC (C-terminal Cys coupled to NSMP-activated BSA).
T6 construct: also called Peptide 19-24
T6 peptide: FFAEDVC
Kind of assay: ELISA.

The values below come from patent publication US20100172907A1 (Hoffmann-La Roche, published 2010).

Positions count from the first letter of the chain named. Groups on a side chain read outwards from the residue. No end group written: not given here. NSMP = not defined here

For orientation: Kd means the free concentration of one partner at which half of the binding sites on the other are occupied at equilibrium, for simple one-to-one binding. High values mean lower affinity, low ones higher affinity.
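Wherever OD ratio 17-22/BSA is given: ELISA of antibody at 10 or 2 µg/ml binding plate-coated BSA–peptide conjugates, detected with HRP anti-human Ig and TMB colour, mock-treated BSA without peptide as negative control.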
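Wherever OD ratio 18-23/BSA is given: ELISA of antibody at 10 or 2 µg/ml binding plate-coated BSA–peptide conjugates, detected with HRP anti-human Ig and TMB colour, mock-treated BSA without peptide as negative control.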
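Wherever OD ratio 2-7/BSA is given: ELISA of antibody at 10 or 2 µg/ml binding plate-coated BSA–peptide conjugates, detected with HRP anti-human Ig and TMB colour, mock-treated BSA without peptide as negative control.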
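Wherever Peptide-ratio 17-22/2-7 is given: ELISA of antibody at 10 or 2 µg/ml binding plate-coated BSA–peptide conjugates, detected with HRP anti-human Ig and TMB colour, mock-treated BSA without peptide as negative control.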

B1: MS-Roche #8.2.H4 Fab (Fab, V domains shown)
VH: QVQLVESGGGLVQPGGSLRLSCAASGFTFSSYAMSWVRQAPGKGLEWVSATSVKGKTYYADSVKGRFTISRDNSKNTLYLQMNSLRAEDTAVYYCARLLSRGYNGYYHKFDVWGQGTLVTVSS
VL: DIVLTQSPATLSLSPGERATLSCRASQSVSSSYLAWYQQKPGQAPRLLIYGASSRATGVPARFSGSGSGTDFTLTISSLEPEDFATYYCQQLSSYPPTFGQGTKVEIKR
notes: H-CDR2 printed with 16 residues
In the case of B1, the Kd worked out at 12.1 nM with human Aβ (1-40) peptide and 11.9 nM in the assay with Aβ (1-42) peptide.

B2: MS-Roche #7 Fab (Fab, V domains shown)
VH: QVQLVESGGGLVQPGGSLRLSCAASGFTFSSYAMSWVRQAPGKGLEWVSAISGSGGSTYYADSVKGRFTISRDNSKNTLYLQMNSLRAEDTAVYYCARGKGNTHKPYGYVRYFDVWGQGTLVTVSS
VL: DIVLTQSPATLSLSPGERATLSCRASQSVSSSYLAWYQQKPGQAPRLLIYGASSRATGVPARFSGSGSGTDFTLTISSLEPEDFATYYCFQLYSDPFTFGQGTKVEIKR
notes: parental HuCAL Fab; also called MSR-7 Fab; MS-R 7
For B2, the “OD ratio 2-7/BSA” value in assay [1] came out at 24. Moreover, in assay [2], the “OD ratio 17-22/BSA” value is 4 and the “Peptide-ratio 17-22/2-7” value amounted to 0.17. For the same molecule, in assay [3], the “OD ratio 18-23/BSA” value stood at 7 and the “Peptide-ratio 18-23/2-7” value came to 0.29. Moreover, in assay [4], the “OD ratio 19-24/BSA” value was 4 and the “Peptide-ratio 19-24/2-7” value was found to be 0.17. In the assay with human Aβ (1-40) peptide, the Kd turned out to be 1100 nM. The same molecule showed a Kd with Aβ (1-42) peptide of 1710 nM.

B3: MS-Roche #7.11.H4 Fab (Fab, V domains shown)
VH: QVQLVESGGGLVQPGGSLRLSCAASGFTFSSYAMSWVRQAPGKGLEWVSAINANGYKTYYADSVKGRFTISRDNSKNTLYLQMNSLRAEDTAVYYCARGKGNTHKPYGYVRYFDVWGQGTLVTVSS
VL: B2 VL with F90Q, L92V, D95P, F97H
With B3, the results for the Kd with human Aβ (1-40) peptide and with Aβ (1-42) peptide were 1 nM and 1.7 nM, respectively.

B4: MS-Roche #7.4.H1 Fab (Fab, V domains shown)
VH: B3 VH with N54T, K57R
VL: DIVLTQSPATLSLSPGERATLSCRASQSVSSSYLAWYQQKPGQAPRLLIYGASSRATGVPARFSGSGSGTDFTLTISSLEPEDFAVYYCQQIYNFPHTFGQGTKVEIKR
B4: the “OD ratio 2-7/BSA” value in assay [1] is 31. In assay [2], the “OD ratio 17-22/BSA” value came to 16 and the “Peptide-ratio 17-22/2-7” value came out at 0.52. Also, in assay [3], the “OD ratio 18-23/BSA” value was 20 and the “Peptide-ratio 18-23/2-7” value worked out at 0.65. For the same molecule, in assay [4], the “OD ratio 19-24/BSA” value came to 16 and the “Peptide-ratio 19-24/2-7” value stood at 0.51.

B5: MS-Roche #7.11.L1 Fab (Fab, V domains shown)
VH: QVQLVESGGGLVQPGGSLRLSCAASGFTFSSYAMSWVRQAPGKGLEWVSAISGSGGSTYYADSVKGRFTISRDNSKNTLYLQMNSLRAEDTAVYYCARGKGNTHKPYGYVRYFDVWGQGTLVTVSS
VL: B2 VL with S28R, V29I, S30L, S31R, S32I, F90Q, L92V, D95P, F97H
B5: the values for the Kd in the assay with human Aβ (1-40) peptide and in the assay with Aβ (1-42) peptide were 1.1 nM and 1.2 nM, respectively.

B6: MS-Roche #7.9.H9 Fab (Fab, V domains shown)
VH: B3 VH with A53G, N54K, Y56N, T58K
VL: B2 VL with F90L, L92I, S94N, D95M, F97I
notes: assembled
As to B6, the Kd with human Aβ (1-40) peptide and with Aβ (1-42) peptide was 0.9 nM each time.

B7: MS-Roche #7.11.H5 Fab (Fab, V domains shown)
VH: B3 VH with N54H, Y56Q, K57R
VL: B2 VL with F90Q, L92V, D95P, F97H
As to B7, the Kd with human Aβ (1-40) peptide stood at 3.4 nM; in the assay with Aβ (1-42) peptide, 1.7 nM.

B8: MS-Roche #7.9.L1 Fab (Fab, V domains shown)
VH: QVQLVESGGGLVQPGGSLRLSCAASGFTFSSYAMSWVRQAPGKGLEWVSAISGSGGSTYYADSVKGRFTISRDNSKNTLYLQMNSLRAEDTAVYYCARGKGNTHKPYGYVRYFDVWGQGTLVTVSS
VL: B2 VL with S28R, V29L, S31P, S32R, F90L, L92I, S94N, D95M, F97I
As to B8, the values for the Kd with human Aβ (1-40) peptide and in the assay with Aβ (1-42) peptide were 1 nM and 1.1 nM, respectively.

B9: MS-Roche #7.11.H3 Fab (Fab, V domains shown)
VH: B3 VH with A50G, Y56N, K57R
VL: B2 VL with F90Q, L92V, D95P, F97H
Consider B9, for which the Kd in the assay with human Aβ (1-40) peptide was found to be 6.6 nM; with Aβ (1-42) peptide it was 4.4 nM.

B10: MS-Roche #7.9.L2 Fab (Fab, V domains shown)
VH: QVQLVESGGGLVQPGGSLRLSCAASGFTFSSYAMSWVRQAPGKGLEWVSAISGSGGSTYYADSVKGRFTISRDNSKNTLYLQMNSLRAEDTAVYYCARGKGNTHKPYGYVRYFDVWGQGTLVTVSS
VL: B2 VL with S28Y, V29L, S30H, S31K, S32R, F90L, L92I, S94N, D95M, F97I
In the case of B10, the Kd came out at 1 nM with human Aβ (1-40) peptide and 0.5 nM with Aβ (1-42) peptide.

B11: MS-Roche #7.9.H1 Fab (Fab, V domains shown)
VH: B3 VH with Y56Q, K57R, T58K, Y59F
VL: B2 VL with F90L, L92I, S94N, D95M, F97I
notes: assembled
Turning to B11, in assay [1], the “OD ratio 2-7/BSA” value worked out at 32. Also, in assay [2], the “OD ratio 17-22/BSA” value amounted to 7 and the “Peptide-ratio 17-22/2-7” value amounted to 0.23. Also, in assay [3], the “OD ratio 18-23/BSA” value worked out at 12 and the “Peptide-ratio 18-23/2-7” value was determined as 0.36. In assay [4], the “OD ratio 19-24/BSA” value amounted to 6 and the “Peptide-ratio 19-24/2-7” value worked out at 0.19.

B12: MS-Roche #7.9.H8 Fab (Fab, V domains shown)
VH: B3 VH with N54S, Y56S, T58I
VL: B2 VL with F90L, L92I, S94N, D95M, F97I
notes: assembled
B12: the Kd with human Aβ (1-40) peptide was 0.8 nM; with Aβ (1-42) peptide, 0.7 nM.

B13: MS-Roche #3.4.H2 Fab (Fab, V domains shown)
VH: QVQLVESGGGLVQPGGSLRLSCAASGFTFSSYAMSWVRQAPGKGLEWVSVIDMVGHTYYADSVKGRFTISRDNSKNTLYLQMNSLRAEDTAVYYCARLTHYARYYRYFDVWGQGTLVTVSS
VL: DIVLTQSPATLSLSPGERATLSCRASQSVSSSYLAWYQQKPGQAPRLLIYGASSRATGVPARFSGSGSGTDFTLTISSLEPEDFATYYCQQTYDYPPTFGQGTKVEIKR
notes: as for B1
Consider B13, for which the “OD ratio 2-7/BSA” value in assay [1] turned out to be 16. Moreover, in assay [2], the “OD ratio 17-22/BSA” value worked out at 11 and the “Peptide-ratio 17-22/2-7” value was 0.69. In assay [3], the “OD ratio 18-23/BSA” value stood at 1 and the “Peptide-ratio 18-23/2-7” value came to 0.06. In addition, in assay [4], the “OD ratio 19-24/BSA” value stood at 1 and the “Peptide-ratio 19-24/2-7” value was determined as 0.06.

B14: MS-Roche #7.12.H1 Fab (Fab, V domains shown)
VH: B3 VH with A33G, A50N, A53G, Y56N, K57R, T58K
VL: DIVLTQSPATLSLSPGERATLSCRASQYVFRRYLAWYQQKPGQAPRLLISGSSNRATGVPARFSGSGSGTDFTLTISSLEPEDFAVYYCLQLYNIPNTFGQGTKVEIKR
Turning to B14, the Kd with human Aβ (1-40) peptide was 0.6 nM; in the assay with Aβ (1-42) peptide, 0.8 nM.

B15: MS-Roche #7.12.L1 Fab (Fab, V domains shown)
VH: B3 VH with A33G, A50N, N52S, A53G, N54S, Y56S, K57S
VL: B14 VL
Regarding B15, in assay [1], the “OD ratio 2-7/BSA” value worked out at 16. In assay [2], the “OD ratio 17-22/BSA” value stood at 10 and the “Peptide-ratio 17-22/2-7” value is 0.6. Further, in assay [3], the “OD ratio 18-23/BSA” value is 12 and the “Peptide-ratio 18-23/2-7” value stood at 0.7. Besides, in assay [4], the “OD ratio 19-24/BSA” value came out at 10 and the “Peptide-ratio 19-24/2-7” value came out at 0.59. The same molecule had a Kd with Aβ (1-42) peptide of 3.8 nM.

B16: MS-Roche #7.12.L3 Fab (Fab, V domains shown)
VH: B3 VH with A33G, A50N, N52S, A53G, N54S, Y56S, K57S
VL: B14 VL with Y28F, F30R, R32G, Y33F
Regarding B16, the dissociation constant (Kd) was determined as 0.8 nM with human Aβ (1-40) peptide and 0.9 nM with Aβ (1-42) peptide.

B17: MS-Roche #7.12.L4 Fab (Fab, V domains shown)
VH: B3 VH with A33G, A50N, N52S, A53G, N54S, Y56S, K57S
VL: B14 VL with Y28R, V29L, F30K, R32S
Turning to B17, the results for the Kd with human Aβ (1-40) peptide and with Aβ (1-42) peptide were 2 nM and 0.6 nM, respectively.

B18: MS-Roche #7.12.L2 Fab (Fab, V domains shown)
VH: B3 VH with A33G, A50N, N52S, A53G, N54S, Y56S, K57S
VL: B14 VL with Y28R, V29F, R31Y, R32K
As for B18, the figures for the Kd with human Aβ (1-40) peptide and with Aβ (1-42) peptide were 4 nM and 5.4 nM, respectively.

B19: MS-Roche #3.4.H7 Fab (Fab, V domains shown)
VH: QVQLVESGGGLVQPGGSLRLSCAASGFTFSSYAMSWVRQAPGKGLEWVSVISETGKNIYYADSVKGRFTISRDNSKNTLYLQMNSLRAEDTAVYYCARLTHYARYYRYFDVWGQGTLVTVSS
VL: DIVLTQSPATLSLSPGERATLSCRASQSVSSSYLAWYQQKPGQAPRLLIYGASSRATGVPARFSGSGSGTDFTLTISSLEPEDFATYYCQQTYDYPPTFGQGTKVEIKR
In the case of B19, the “OD ratio 2-7/BSA” value in assay [1] was found to be 24. Moreover, in assay [3], the “OD ratio 18-23/BSA” value turned out to be 6 and the “Peptide-ratio 18-23/2-7” value came to 0.25. Moreover, in assay [4], the “OD ratio 19-24/BSA” value was 5 and the “Peptide-ratio 19-24/2-7” value is 0.21. The Kd with human Aβ (1-40) peptide was determined as 19.2 nM. In the assay with Aβ (1-42) peptide, the Kd is 31.7 nM.

B20: MS-Roche #3.4.L9 Fab (Fab, V domains shown)
VH: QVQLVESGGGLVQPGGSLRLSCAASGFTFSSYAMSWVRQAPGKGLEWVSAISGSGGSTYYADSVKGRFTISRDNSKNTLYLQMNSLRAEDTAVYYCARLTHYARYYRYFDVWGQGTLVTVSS
VL: DIVLTQSPATLSLSPGERATLSCRASRRIHVYYLAWYQQKPGQAPRLLIYGASSRATGVPARFSGSGSGTDFTLTISSLEPEDFATYYCQQTYDYPPTFGQGTKVEIKR
B20: the Kd with human Aβ (1-40) peptide is 16.3 nM; with Aβ (1-42) peptide, 9.1 nM.

B21: MS-Roche #3.4.H13 Fab (Fab, V domains shown)
VH: B19 VH with V50A, T54Q, K56R
VL: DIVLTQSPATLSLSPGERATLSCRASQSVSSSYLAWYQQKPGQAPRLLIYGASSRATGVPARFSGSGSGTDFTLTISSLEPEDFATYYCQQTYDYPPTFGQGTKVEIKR
As for B21, the Kd in the assay with human Aβ (1-40) peptide is 32.3 nM; in the assay with Aβ (1-42) peptide, 18.8 nM.

B22: MS-Roche #3.6.L2 Fab (Fab, V domains shown)
VH: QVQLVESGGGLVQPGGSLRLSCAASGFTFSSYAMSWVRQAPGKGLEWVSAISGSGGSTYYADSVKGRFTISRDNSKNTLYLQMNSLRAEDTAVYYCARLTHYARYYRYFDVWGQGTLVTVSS
VL: B20 VL with R27Q, R28F, I29L, H30S, V31R, T86V, D94N
Take B22: the values for the Kd in the assay with human Aβ (1-40) peptide and with Aβ (1-42) peptide were 13.7 nM and 13.1 nM, respectively.

B23: MS-Roche #3.6.H3 Fab (Fab, V domains shown)
VH: B19 VH with N57F
VL: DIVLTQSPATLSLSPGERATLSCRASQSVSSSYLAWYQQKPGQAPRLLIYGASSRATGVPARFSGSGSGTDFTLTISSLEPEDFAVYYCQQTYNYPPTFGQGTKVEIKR
Regarding B23, the Kd with human Aβ (1-40) peptide came to 5.4 nM; with Aβ (1-42) peptide, 7.5 nM.

B24: MS-Roche #3.4.H14 Fab (Fab, V domains shown)
VH: B19 VH with V50A, T54S, K56Q, N57Y, I58K
VL: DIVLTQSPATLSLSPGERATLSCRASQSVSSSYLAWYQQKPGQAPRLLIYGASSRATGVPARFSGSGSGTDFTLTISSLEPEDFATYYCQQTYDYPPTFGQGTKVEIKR
For B24, the results for the Kd with human Aβ (1-40) peptide and with Aβ (1-42) peptide were 13.3 nM and 16.8 nM, respectively.
